Like-named read-outs stand apart in the source and are kept apart here.

Test [1] concerns the target T1, human HER2 (human, UniProt P04626). Kind of test: FACS. For orientation: A flow cytometer gives signals particle by particle.
The target of test [2] is T1, human HER2. Nature of the test: FACS. This is another data set of the same source.
Test [3] deals with human 4-1BB (CD137) (human, UniProt Q07011). Kind of test: FACS.
Test [4] addresses T2, human CD32b (FcgRIIb) (human, UniProt P31994).
T2 chain: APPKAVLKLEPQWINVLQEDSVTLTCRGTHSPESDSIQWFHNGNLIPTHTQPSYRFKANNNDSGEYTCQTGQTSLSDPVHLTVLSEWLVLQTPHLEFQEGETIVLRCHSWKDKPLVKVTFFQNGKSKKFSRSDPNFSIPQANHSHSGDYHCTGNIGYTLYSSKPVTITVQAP
Nature of the test: FACS, CHOS-hCD32b cells.

Chain of human 4-1BB (CD137) (Q07011 24-186): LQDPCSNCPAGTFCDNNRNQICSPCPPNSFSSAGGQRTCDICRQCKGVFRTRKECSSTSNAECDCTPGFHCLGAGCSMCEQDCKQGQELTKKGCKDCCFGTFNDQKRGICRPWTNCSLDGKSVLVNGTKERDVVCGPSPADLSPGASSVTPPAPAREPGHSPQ

B1: HER2xHER2x4-1BB-2 (both HER2 arms) (antibody)
chain 1: not shown
chain 2: not shown
chain 3: EVQLVESGGGLVQPGGSLRLSCAASGFTFTDYTMDWVRQAPGKGLEWVADVNPNSGGSIYNQRFKGRFTLSVDRSKNTLYLQMNSLRAEDTAVYYCARNLGPSFYFDYWGQGTLVTVSS
chain 4: DIQMTQSPSSLSASVGDRVTITCKASQDVSIGVAWYQQKPGKAPKLLIYSASYRYTGVPSRFSGSGSGTDFTLTISSLQPEDFATYYCQQYYIYPYTFGQGTKVEIK
For orientation: EC50 means the concentration at which the effect is half-maximal. High values mean a need for much substance, low ones an effect from little substance. In the case of B1, the EC50 in test [1] worked out at 1.81 nM; in test [2], 2.88 nM.

B2: Pertuzumab (antibody, V domains shown)
VH: B1 chain 3
VL: B1 chain 4
As for B2, the binding result in test [3] is on record as “no binding”.

B3: HER2xHER2x4-1BB-1 (both HER2 arms) (antibody)
chain 1: not shown
chain 2: DIQMTQSPSSLSASVGDRVTITCRASQSVQGAVAWYQQKPGKAPKLLIYSASFLYSGVPSRFSGSRSGTDFTLTISSLQPEDFATYYCQQHSTTPPTFGQGTKVEIK
chain 3: B1 chain 3
chain 4: B1 chain 4
B3: the EC50 is 1.82 nM in test [1] and 2.65 nM in test [2].

B4: HER2xHER2x4-1BB-1 (full) (antibody)
chain 1: not shown
chain 2: DIQMTQSPSSLSASVGDRVTITCRASQSVQGAVAWYQQKPGKAPKLLIYSASFLYSGVPSRFSGSRSGTDFTLTISSLQPEDFATYYCQQHSTTPPTFGQGTKVEIKRTVAAPSVFIFPPSDEQLKSGRASVVCLLNNFYPREAKVQWKVDNALQSGNSQESVTEQDSKDSTYSLSSRLQLSKADYEKHKVYACEVTHQGLSSPVTKSFNRGEC
chain 3: not shown
chain 4: DIQMTQSPSSLSASVGDRVTITCKASQDVSIGVAWYQQKPGKAPKLLIYSASYRYTGVPSRFSGSGSGTDFTLTISSLQPEDFATYYCQQYYIYPYTFGQGTKVEIKRTVAAPSVFIFPPSDEELKSGTASVQCLLNNFYPREAKVQWKVDNALQSGNSQESVTEQDSKDSTYSLSSELTLSKADYEKHKVYACEVTHQGLSSPVTKSFNRGEC
Molecule B4 returned an EC50 in test [4] of 1.06 nM.

The record behind these values is patent publication US20260347491 (published 2026).
